According to paper PMC4865318 (Molecular Biology of the Cell, 2016):

B1: GST-UNC-89 (58–131) (domain or fragment, C. elegans, UniProt O01761 58-131, looked up)
chain: AGSESRSYPVYIAIQDYTPDKEDVEAIPLEQGQIVEVLDKKNSVRWLVRTKARPPRSGWVPGSYFETPTEFYKQ
B2: GST-UNC-89 (1–500) (domain or fragment, C. elegans, UniProt O01761 1-500, looked up)
chain: MASRRQKQFDRKYSSYRKFTATEDVNYSTHSSRSSYRSESLTSRTDGRGRSTSSEIIAGSESRSYPVYIAIQDYTPDKEDVEAIPLEQGQIVEVLDKKNSVRWLVRTKARPPRSGWVPGSYFETPTEFYKQRRRTREIENVSLSDEQAALVKRDQVYHELLRSEEEFVSSLRTCVDDYIKVLDDPEVPEAVKKNREELTLNIPELYNFHANVMLKGLNYYSDDPGKVGQTFVRLEKDFESHVEFYKQYADTLKLLEEPEIKRFFEGLSAKNDAGASSFVDHVKEIADRMVQYQNYFKEFVKYSARAHGSSKSIQKALELVTTIPQRVHDLEFTNNLKQHPGDTGKLGRIIRHDAFQVWEGDEPPKLRYVFLFRNKIMFTEQDASTSPPSYTHYSSIRLDKYNIRQHTTDEDTIVLQPQEPGLPSFRIKPKDFETSEYVRKAWLRDIAEEQEKYAAERDAISMTATSEMTASSVDFDMNASDQQSEFSEWSGSRKSSLFPG
B3: GST-UNC-89 (1–151) (domain or fragment, C. elegans, UniProt O01761 1-151, looked up)
chain: MASRRQKQFDRKYSSYRKFTATEDVNYSTHSSRSSYRSESLTSRTDGRGRSTSSEIIAGSESRSYPVYIAIQDYTPDKEDVEAIPLEQGQIVEVLDKKNSVRWLVRTKARPPRSGWVPGSYFETPTEFYKQRRRTREIENVSLSDEQAALV

Experiments:
MBP-UNC-15 (294–376) = target: T1, MBP-UNC-15 (294–376) (C. elegans, UniProt P10567 294-376); assay: BLI
T1 sequence (looked up): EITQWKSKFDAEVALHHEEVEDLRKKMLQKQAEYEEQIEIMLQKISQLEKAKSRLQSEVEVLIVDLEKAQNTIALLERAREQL

MBP-UNC-15 (221–873) = target: T2, MBP-UNC-15 (221–873) (C. elegans, UniProt P10567 221-872); assay: far-Western
T2 sequence (looked up): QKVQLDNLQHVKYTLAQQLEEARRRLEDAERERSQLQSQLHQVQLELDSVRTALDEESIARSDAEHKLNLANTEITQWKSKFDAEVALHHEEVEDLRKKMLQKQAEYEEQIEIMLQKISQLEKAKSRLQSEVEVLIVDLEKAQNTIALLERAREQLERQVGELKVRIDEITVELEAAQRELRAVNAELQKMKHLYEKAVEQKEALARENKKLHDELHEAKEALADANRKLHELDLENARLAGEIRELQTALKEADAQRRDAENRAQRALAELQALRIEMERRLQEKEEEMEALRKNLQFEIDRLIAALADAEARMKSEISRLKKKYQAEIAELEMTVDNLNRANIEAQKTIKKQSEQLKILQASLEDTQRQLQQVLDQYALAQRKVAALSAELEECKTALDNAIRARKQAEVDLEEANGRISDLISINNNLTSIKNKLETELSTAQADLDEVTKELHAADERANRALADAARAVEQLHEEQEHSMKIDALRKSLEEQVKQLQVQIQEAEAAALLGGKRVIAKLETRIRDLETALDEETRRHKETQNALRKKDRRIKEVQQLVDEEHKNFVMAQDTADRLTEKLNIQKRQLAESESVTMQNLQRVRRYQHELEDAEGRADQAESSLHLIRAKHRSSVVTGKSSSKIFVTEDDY

Row | Kd (MBP-UNC-15 (294–376)) [nM] | koff (MBP-UNC-15 (294–376)) [s⁻¹] | kon (MBP-UNC-15 (294–376)) [M⁻¹ s⁻¹] | binding result (MBP-UNC-15 (221–873)) | Binder
1 | 1100 | 0.00015 | 143 |  | B1
2 |  |  |  | binds | B2
3 |  |  |  | binds | B3
